{
  "source": "patent US20250197491A1",
  "about": "(MACOMICS, published 2025)",
  "binders": {"B1": {"name": "Antibody 1 (antibody, V domains shown)", "VH": "QVQLVESGGGLVKPGGSLRLSCAASGFTFSDYYMSWIRQAPGKGLEWVSYISSSGSIKKYADSVKGRFTISRDNAKNSLYLQMNSLRGEDTAVYYCARTNWHFDYWGQGTLVTVSS", "VL": "EIVLTQSPGTLSLSPGERATLSCRASQSVSSSYLAWYQQKPGQAPRLLIFGASTRATGIPDRFSGSGSGTDFTLTISRLEPEDVAVYYCQQYYSTPFTFGPGTKVDIK", "notes": "Fully human antibody expressed in CHO; also called Clone 1; Antibody Clone 1"}, "B2": {"name": "Antibody 3 (antibody, V domains shown)", "VH": "QVQLVQSGAEVKKPGASVKVSCKASGYTFTSYGISWVRQAPGQGLEWMGWISAYNGNTNYAQKLQGRVTMTTDTSTSTAYMELRSLRSDDTAVYYCARSYSGSHWWFDPWGQGTLVTVSS", "VL": "not shown", "notes": "Fully human antibody; IgG4; also called Clone 3; Antibody Clone 3"}, "B3": {"name": "Antibody 4 (antibody, V domains shown)", "VH": "QVQLVQSGAEVKKPGASVKVSCKASGYTFTSYGISWVRQAPGQGLEWMGWISAYNGNTNYAQKLQGRVTMTTDTSTSTAYMELRSLRSDDTAVYYCARSYSGSYWWFDPWGQGTLVTVSS", "VL": "not shown", "notes": "Fully human antibody; IgG4; also called Clone 4; Antibody Clone 4"}, "B4": {"name": "Antibody 5 (antibody, V domains shown)", "VH": "QVQLVESGGGLVKPGGSLRLSCAASGFTFSDYYMTWIRQAPGKGLEWVSYISISGITRYYADSVKGRFTISRDNAKNSLYLQMNSLRAEDTAVYYCARDQTGYFDYWGQGTLVTVSS", "VL": "DIVMTQSPATLSVSPGEKTTLSCRASQSFSSNLAWYQQKPGQAPRLLIYGASTRATGIPARFSGSGSGTEFTLTISSLQSEDFAVYYCQQYINWPHTFGQGTKVEIK", "notes": "Fully human antibody; IgG4; also called Clone 5; Antibody Clone 5"}},
  "key": {"[1]": {"target": "T1, Human LILRB1(L68P/A93T) ectodomain fused to mIgG2aFc (human)", "T1 construct": "The entry already carries the two substitutions", "T1 sequence (chain, as listed by the source L68P A93T L68P A93T limits assumed)": "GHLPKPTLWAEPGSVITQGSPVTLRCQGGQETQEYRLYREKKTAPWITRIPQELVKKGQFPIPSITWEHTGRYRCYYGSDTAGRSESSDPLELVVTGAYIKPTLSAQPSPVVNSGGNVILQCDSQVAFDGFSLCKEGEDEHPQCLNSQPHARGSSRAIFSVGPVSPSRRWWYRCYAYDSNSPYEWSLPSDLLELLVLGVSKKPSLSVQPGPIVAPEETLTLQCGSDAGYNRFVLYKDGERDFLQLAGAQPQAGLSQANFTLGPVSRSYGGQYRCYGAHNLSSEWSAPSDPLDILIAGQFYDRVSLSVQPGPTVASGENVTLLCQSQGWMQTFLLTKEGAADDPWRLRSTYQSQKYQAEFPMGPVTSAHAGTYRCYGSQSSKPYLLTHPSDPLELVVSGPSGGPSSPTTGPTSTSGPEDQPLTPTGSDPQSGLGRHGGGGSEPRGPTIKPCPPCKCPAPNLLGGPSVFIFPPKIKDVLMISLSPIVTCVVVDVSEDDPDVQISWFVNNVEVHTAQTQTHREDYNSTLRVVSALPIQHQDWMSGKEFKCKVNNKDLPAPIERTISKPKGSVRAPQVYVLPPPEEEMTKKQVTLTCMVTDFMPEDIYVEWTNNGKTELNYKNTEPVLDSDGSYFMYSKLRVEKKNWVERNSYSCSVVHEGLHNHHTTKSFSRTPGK", "assay": "ELISA, antigen coated, 10 nM antibody", "source_text": "(§1) FIG. 3. Mixed LILRB1 and LILRB2 expression in TAMs from melanoma cancer patients. Analysis of LILRB1 and LILRB2 detection in macrophages in pre- and post-anti-PD-1 and/or anti-CTLA-4 therapy treated melanoma patients (n=33) is shown using Smart-seq2 data from Sade-Feldman et al. https://pubmed.ncbi.nlm.nih.gov/30633907/FIG. 4. Binding to domains of human LILRB1. Plates were coated with recombinant full length LILRB1 ectodomain (SEQ ID NO: 41) or a protein comprising domain 1 and 2 of human LILRB1 protein (SEQ ID NO: 42), and then incubated with 10 nM Clones 1-5, Reference Ab 1, and Isotype control. The bound antibodies were detected using HRP-labeled secondary antibodies and the results were plotted on the graph as absorbance measured at 450 nm.\n(§2) Binding to allelic forms of LILRB1. There are 4 major allelic variants of human LILRB1 protein ectodomain. The variants of LILRB1 were expressed as recombinant proteins comprising a modified LILRB1 ectodomain and mouse IgG2 Fc region (SEQ ID NO: 50 and 51) in suspension CHO cells, and purified by using techniques that were known in the art. These recombinant proteins were then used in the direct enzyme-linked immunosorbent assay (ELISA) to determine the antibodies potential to bind different allelic forms of LILRB1. In short, Maxisorp (Nunc) or similar immune-assay plates were coated with solutions of target proteins in PBS, at 4° C., overnight. Plates were then washed with PBS, blocked with 5% milk in PBS, and washed again. Test antibodies diluted in PBS were then added to the plates and incubated at room temperature for at least 1h. Plates were subsequently washed with PBS/0.05% Tween-20 (PBST) and incubated with a solution of horse radish peroxidase (HRP) labelled secondary antibodies at room temperature for at least 1 h. After washing with PBST and PBS, bound antibodies were detected using the 3,3′,5,5;-tetramethylbenzidine (TMB) chromogenic solution. After 5 to 10 minutes, the reaction was stopped with 1% sulphuric acid and absorbance read at 450 nm.\n(§3) There are four major allelic variants within the ecto-domain of LILRB1 in human population [Human Molecular Genetics, 2005, Vol. 14, 2469-2480]; namely c.203T>C (L68P), c.277G>A (A93T), c.425T>C (I142T), and c.464G>T (S155I)."}, "[2]": {"target": "T2, Human LILRB1(I142T/S155I) ectodomain fused to mIgG2aFc (human)", "T2 construct": "The entry already carries the two substitutions", "T2 sequence (chain, as listed by the source I142T S155I I142T S155I limits assumed)": "as the sequence (chain, as listed by the source L68P A93T L68P A93T limits assumed) above, with P45L, T70A, I119T, S132I counted along it", "assay": "ELISA, antigen coated, 10 nM antibody", "source_text": "as §1, §2, §3"}},
  "data": [
    {"binder": "B1", "values": [
      {"measurement": "binding result", "setting": "[1]", "value": "binds"},
      {"measurement": "binding result", "setting": "[2]", "value": "binds"}
    ]},
    {"binder": "B2", "values": [
      {"measurement": "binding result", "setting": "[1]", "value": "binds"},
      {"measurement": "binding result", "setting": "[2]", "value": "binds"}
    ]},
    {"binder": "B3", "values": [
      {"measurement": "binding result", "setting": "[1]", "value": "binds"},
      {"measurement": "binding result", "setting": "[2]", "value": "binds"}
    ]},
    {"binder": "B4", "values": [
      {"measurement": "binding result", "setting": "[1]", "value": "binds"},
      {"measurement": "binding result", "setting": "[2]", "value": "binds"}
    ]}
  ]
}
